Measurements: patent publication US20090053241A1

Tests used:
[1] = target: β1-3 (shorter version of PDGFRβ, D1D2D3); experiment: ELISA (OD450), panel 'PDGF-BB BINDING TO hPDGFRβ DELETIONS'; axis 'CO…ON (nM)', titrated species not stated
1β4α (PDGFRβ/α chimera) = experiment: ELISA (OD450), panel 'PDGF-AA BINDING TO PDGFRβ/α CHIMERAS'; axis 'CO…ON (nM)', titrated species not stated
h5α (human) = h5α (human) (UniProt P16234); experiment: as above
Sequence of h5α (human) (P16234 24-524 limits assumed): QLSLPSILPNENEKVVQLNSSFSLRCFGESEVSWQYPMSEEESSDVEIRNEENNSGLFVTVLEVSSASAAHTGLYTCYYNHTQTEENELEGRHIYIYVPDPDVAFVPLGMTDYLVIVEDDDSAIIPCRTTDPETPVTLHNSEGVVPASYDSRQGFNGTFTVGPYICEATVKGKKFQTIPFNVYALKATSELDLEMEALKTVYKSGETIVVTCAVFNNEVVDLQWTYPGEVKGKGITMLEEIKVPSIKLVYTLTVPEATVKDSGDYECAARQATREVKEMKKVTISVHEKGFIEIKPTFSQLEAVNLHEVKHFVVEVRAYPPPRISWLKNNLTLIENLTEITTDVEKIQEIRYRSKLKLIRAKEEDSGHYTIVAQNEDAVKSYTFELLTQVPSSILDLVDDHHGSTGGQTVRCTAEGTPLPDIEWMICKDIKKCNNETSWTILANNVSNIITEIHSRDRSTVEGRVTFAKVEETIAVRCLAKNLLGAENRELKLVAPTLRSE

Sequence of PDGF-BB (ligand) (P01127 82-190): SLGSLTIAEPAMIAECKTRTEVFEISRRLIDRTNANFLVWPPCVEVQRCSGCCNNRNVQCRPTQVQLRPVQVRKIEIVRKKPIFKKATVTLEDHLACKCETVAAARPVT
Sequence of 1β4α (PDGFRβ/α chimera) (P16234 other isoform, or with tags, fused parts or gaps mutant): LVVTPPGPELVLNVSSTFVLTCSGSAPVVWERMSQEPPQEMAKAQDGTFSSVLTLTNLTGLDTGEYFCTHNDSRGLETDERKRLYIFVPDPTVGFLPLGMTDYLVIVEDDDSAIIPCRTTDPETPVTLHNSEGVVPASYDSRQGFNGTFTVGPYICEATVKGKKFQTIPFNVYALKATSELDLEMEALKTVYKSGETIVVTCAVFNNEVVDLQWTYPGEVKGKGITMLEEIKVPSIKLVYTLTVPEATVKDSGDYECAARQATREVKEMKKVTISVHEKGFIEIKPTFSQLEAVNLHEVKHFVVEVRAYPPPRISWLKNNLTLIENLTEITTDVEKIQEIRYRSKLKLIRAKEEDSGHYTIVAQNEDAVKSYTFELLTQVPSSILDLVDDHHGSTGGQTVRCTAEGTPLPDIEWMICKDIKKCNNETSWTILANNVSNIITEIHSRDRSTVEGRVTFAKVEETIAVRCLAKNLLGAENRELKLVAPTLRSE

EC50 (read off the curve) [1] [nM] | EC50 (read off the curve) (1β4α (PDGFRβ/α chimera)) [nM] | EC50 (read off the curve) (h5α (human)) [nM] | Substance
0.06 | – | – | PDGF-BB (ligand)
– | 0.05 | 0.02 | PDGF-AA (ligand)
